Target: mouse VEGF-A (mouse) (UniProt Q00731)
Experiment: cell-based or functional assay

Sequence of mouse VEGF-A (mouse) (Q00731 other isoform, or with tags, fused parts or gaps limits assumed): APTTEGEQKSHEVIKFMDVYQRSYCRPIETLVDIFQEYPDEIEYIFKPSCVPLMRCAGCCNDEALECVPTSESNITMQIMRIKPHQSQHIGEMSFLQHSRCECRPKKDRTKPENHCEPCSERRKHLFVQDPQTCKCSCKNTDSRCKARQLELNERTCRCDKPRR

BRME proliferation (Alamar blue): > 1500 nM
Substance: Bevacizumab (BV) (antibody)

From US20110159009A1
